*1 amine or outer side, *2 acyl side, *3 side chain or, on linkers, in order; H or OH if unused. Where no end group is shown, it is not given here. [ ]: non-standard residue; d: D form. pT = C[C@@H](OP(=O)(O)O)[C@H](N)C(=O)O; Suc = O=C(CCC(=O)[*:2])[*:1]
T1: TbPar42 PPIase domain (264-383) (T. brucei, succinyl on the N-terminus; phosphothreonine at position 2; C-terminal amide / 15N-labelled, wild type; entity position 1 = Pro264 (offset 263), so checks are His271, Cys333, Leu374; residual GP from)
T1 chain: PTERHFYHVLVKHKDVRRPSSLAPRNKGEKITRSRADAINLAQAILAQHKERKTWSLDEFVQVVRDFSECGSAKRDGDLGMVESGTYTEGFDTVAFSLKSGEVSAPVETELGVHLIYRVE

B1: Ala-Glu-Ala-pThr-Ala-Glu-Ser (peptide)
chain: AEA[pT]AES
B2: Ala-Glu-Ala-pThr-Ala-Glu-Glu (peptide)
chain: AEA[pT]AEE
B3: Ala-Glu-Ala-pThr-Ala-Glu-Ile (peptide)
chain: AEA[pT]AEI
B4: Ala-Glu-Ala-pThr-Ala-Glu-Val (peptide)
chain: AEA[pT]AEV
B5: Suc-Ala-pThr-Pro-Ala-NH2 (peptide)
peptide: Suc-A[pT]PA-NH2
SMILES: C[C@H](NC(=O)[C@@H]1CCCN1C(=O)[C@@H](NC(=O)[C@H](C)NC(=O)CCC(=O)O)[C@@H](C)OP(=O)(O)O)C(N)=O
notes: also called phosphorylated model peptide; source: synthetic peptide, bought: CASLO
B6: Ala-Glu-Ala-pThr-Ala-Glu-Asp (peptide)
chain: AEA[pT]AED

Legend:
[1] = target: TbPar42 N-terminal extended FHA domain (1-177) (Trypanosoma brucei, UniProt Q57XM6 1-177); assay: NMR titration; unlabelled Ala-Glu-Ala-pThr-Ala-Glu-Xaa peptide added stepwise up to 8 mM to 250 µM 15N-labelled NterFHA; 1H-15N-HSQC, 27 °C; mean KD values; settings: both partners purified
[2] = target: T1, TbPar42 PPIase domain (264-383); assay: NMR titration; 440 uM 15N-labelled NterFHA or PPIase in 50 mM potassium phosphate, pH 6.26, 90%/10% H2O/D2O; peptide added stepwise to 13 mM; 1H-15N-HSQC or SOFAST spectra, 700 MHz, 27 °C; settings: both partners purified

Binder	Kd [1] [mM]	Kd [2] [mM]
B1	3.1	
B2	5.4	
B3	4.1	
B4	3.9	
B5		~10
B6	3.4	

Reference: paper PMC6468809, “Structural Analysis of the 42 kDa Parvulin of Trypanosoma brucei” (Biomolecules, 2019)
